According to US20180149638A1:

Target: pBIND-ASK1N (DNA binding domain fused to ASK1 N-terminal 1-678 aa, CheckMate mammalian two-hybrid system) (Homo sapiens (Human)) (UniProt Q99683)
Test: cell-based or functional assay

UniProt Q99683, sequence (Q99683 other isoform, or with tags, fused parts or gaps limits assumed, form in doubt): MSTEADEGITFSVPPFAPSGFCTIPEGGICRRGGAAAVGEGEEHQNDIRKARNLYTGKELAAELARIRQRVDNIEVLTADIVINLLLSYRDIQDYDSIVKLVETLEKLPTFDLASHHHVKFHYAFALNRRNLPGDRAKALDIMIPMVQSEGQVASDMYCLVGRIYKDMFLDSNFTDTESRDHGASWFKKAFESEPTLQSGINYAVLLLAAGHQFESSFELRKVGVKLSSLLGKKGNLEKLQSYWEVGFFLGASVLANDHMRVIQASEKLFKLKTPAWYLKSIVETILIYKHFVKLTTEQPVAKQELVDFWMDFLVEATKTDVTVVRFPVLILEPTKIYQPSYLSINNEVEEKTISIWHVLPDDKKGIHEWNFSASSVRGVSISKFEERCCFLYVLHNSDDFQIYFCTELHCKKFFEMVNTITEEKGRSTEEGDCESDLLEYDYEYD

ratio of RLU value of firefly luciferase to RLU value of Renilla luciferase, group A (no peptide): 1.9
Substance: pACT-ASK1N (transcriptional activation domain fused to ASK1 N-terminal 1-678 aa, CheckMate mammalian two-hybrid system) (from UniProt Q99683 1-678)
